Results on 15 variants are retold here after the supplement of paper PMC7125110.

B1: glmS ribozyme (parent)
chain: AUAAAAGCGCCAGAACUACAGAAAUGUAGUUGACGAGGAGGAGGUUUAUCGAAUUUUCGGCGGAUGCCUCCAAA

Common to all, as to details: with glucosamine-6-phosphate
Variants of B1 are the subject of data set [1]. Kind of data set: kcat; higher = faster cleavage; RNA array. In a few lines:
(§1)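 Barcoded ribozyme variants on sequenced MiSeq chips were transcribed in situ by E. coli RNA polymerase and followed at 37 °C through a hybridised Cy3 probe. Glucosamine-6-phosphate at 40 μM to 10 mM in HEPES/KCl/Mg(OAc)2 buffer was flowed in, and tiles were imaged over ~14 h. Signals were normalised to baseline and to non-cleaving reference variants, and per-tile medians were fit to one- or two-exponential decays to give kobs. Weighted Michaelis–Menten fits across concentrations gave kcat and KM.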

In data set [2] the parent is B1. Kind of data set: KM; higher = weaker cofactor use; RNA array. In a few lines:
as §1

Variants of B1 are the subject of data set [3]. The data set is described as follows: self-cleavage kobs at 2500 uM GlcN6P; higher = faster cleavage; RNA array. The method, boiled down:
as §1

The variants in data set [4] derive from B1. Kind of data set: self-cleavage kobs at 10000 uM GlcN6P; higher = faster cleavage; RNA array. The method, boiled down:
as §1

In data set [5] the parent is B1. The data set is described as follows: self-cleavage kobs at 160 uM GlcN6P; higher = faster cleavage; RNA array. The method, boiled down: as §1
Data set [6] covers variants of B1. Kind of data set: self-cleavage kobs at 640 uM GlcN6P; higher = faster cleavage; RNA array. In a few lines: as §1
Data set [7] covers variants of B1. The data set is described as follows: self-cleavage kobs at 40 uM GlcN6P; higher = faster cleavage; RNA array. In a few lines:
as §1

± gives the standard error. For some of these results: Fewer inactive variants are shown than the library holds.

In general, kcat refers to the maximal rate divided by the concentration of active sites. As usually defined, the KM is the concentration of substrate that gives half-maximal velocity.

In the case of A14U U57A, the kcat in the data set with glucosamine-6-phosphate [1] worked out at 6.85e-05 ± 3.9e-06 s⁻¹. Further, in the data set with glucosamine-6-phosphate [2], the KM is 2120 ± 440 µM. For the same variant, the “self-cleavage kobs at 2500 uM GlcN6P” value in the data set with glucosamine-6-phosphate [3] was 3.51e-05 ± 1e-05 s⁻¹. The “self-cleavage kobs at 10000 uM GlcN6P” value with glucosamine-6-phosphate [4] worked out at 5.69e-05 ± 7.6e-06 s⁻¹.
For the variant U31C A52G, the kcat with glucosamine-6-phosphate [1] was 0.000531 ± 5.8e-05 s⁻¹. Also, the KM with glucosamine-6-phosphate [2] amounted to 4640 ± 810 µM. The “self-cleavage kobs at 160 uM GlcN6P” value with glucosamine-6-phosphate [5] was 2.13e-05 ± 8.7e-06 s⁻¹. Also, the “self-cleavage kobs at 640 uM GlcN6P” value in the data set with glucosamine-6-phosphate [6] amounted to 6.14e-05 ± 7.4e-06 s⁻¹. In addition, the “self-cleavage kobs at 2500 uM GlcN6P” value in the data set with glucosamine-6-phosphate [3] amounted to 0.000196 ± 2.2e-05 s⁻¹. The “self-cleavage kobs at 10000 uM GlcN6P” value with glucosamine-6-phosphate [4] was 0.000358 ± 3.4e-05 s⁻¹.
Regarding C50G G51A G59U C70G, the kcat with glucosamine-6-phosphate [1] is 0.000102 ± 2.5e-05 s⁻¹. Moreover, the “self-cleavage kobs at 160 uM GlcN6P” value with glucosamine-6-phosphate [5] came out at 9.16e-05 ± 3.2e-05 s⁻¹. The “self-cleavage kobs at 640 uM GlcN6P” value with glucosamine-6-phosphate [6] was found to be 0.000132 ± 2.9e-05 s⁻¹. For the same variant, the “self-cleavage kobs at 2500 uM GlcN6P” value with glucosamine-6-phosphate [3] stood at 7.99e-05 ± 2e-05 s⁻¹.
Turning to G32U C58U, the kcat with glucosamine-6-phosphate [1] was determined as 0.000916 ± 0.0003 s⁻¹. Also, the “self-cleavage kobs at 160 uM GlcN6P” value with glucosamine-6-phosphate [5] is 6.06e-05 ± 1.7e-05 s⁻¹. Besides, the “self-cleavage kobs at 640 uM GlcN6P” value in the data set with glucosamine-6-phosphate [6] stood at 0.000118 ± 1.5e-05 s⁻¹. Besides, the “self-cleavage kobs at 2500 uM GlcN6P” value with glucosamine-6-phosphate [3] amounted to 0.000245 ± 3e-05 s⁻¹. Besides, the “self-cleavage kobs at 10000 uM GlcN6P” value with glucosamine-6-phosphate [4] worked out at 0.000655 ± 6.4e-05 s⁻¹.
Take A15C C67A: the kcat with glucosamine-6-phosphate [1] amounted to 0.000713 ± 0.00031 s⁻¹. The “self-cleavage kobs at 40 uM GlcN6P” value with glucosamine-6-phosphate [7] is 5.14e-05 ± 1.2e-05 s⁻¹. Besides, in the data set with glucosamine-6-phosphate [5], the “self-cleavage kobs at 160 uM GlcN6P” value was 0.000103 ± 1.7e-05 s⁻¹. Further, the “self-cleavage kobs at 640 uM GlcN6P” value in the data set with glucosamine-6-phosphate [6] turned out to be 0.000552 ± 0.0001 s⁻¹. The “self-cleavage kobs at 2500 uM GlcN6P” value with glucosamine-6-phosphate [3] was determined as 0.000389 ± 0.00012 s⁻¹. In the data set with glucosamine-6-phosphate [4], the “self-cleavage kobs at 10000 uM GlcN6P” value turned out to be 0.000858 ± 0.00022 s⁻¹.
Take C50A C67U: in the data set with glucosamine-6-phosphate [1], the turnover number (kcat) worked out at 1.84e-05 ± 4e-06 s⁻¹.
For the variant A14C U30A, in the data set with glucosamine-6-phosphate [1], the kcat is 0.00104 ± 0.00011 s⁻¹. Moreover, the KM with glucosamine-6-phosphate [2] amounted to 2710 ± 480 µM. Also, the “self-cleavage kobs at 160 uM GlcN6P” value in the data set with glucosamine-6-phosphate [5] turned out to be 6.84e-05 ± 2e-05 s⁻¹. In addition, the “self-cleavage kobs at 640 uM GlcN6P” value with glucosamine-6-phosphate [6] is 0.000182 ± 3.9e-05 s⁻¹. Also, the “self-cleavage kobs at 2500 uM GlcN6P” value with glucosamine-6-phosphate [3] turned out to be 0.000568 ± 0.00017 s⁻¹. Besides, the “self-cleavage kobs at 10000 uM GlcN6P” value with glucosamine-6-phosphate [4] came to 0.000813 ± 0.00013 s⁻¹.
As to A12U C58A, in the data set with glucosamine-6-phosphate [1], the kcat is 0.00172 ± 0.00051 s⁻¹. For the same variant, the “self-cleavage kobs at 640 uM GlcN6P” value in the data set with glucosamine-6-phosphate [6] worked out at 5.11e-05 ± 1.2e-05 s⁻¹. Besides, the “self-cleavage kobs at 2500 uM GlcN6P” value with glucosamine-6-phosphate [3] worked out at 0.000149 ± 2.6e-05 s⁻¹. For the same variant, the “self-cleavage kobs at 10000 uM GlcN6P” value with glucosamine-6-phosphate [4] came to 0.00051 ± 6.1e-05 s⁻¹.
With U56G A64G, the kcat with glucosamine-6-phosphate [1] stood at 0.0177 ± 0.0051 s⁻¹. Moreover, the KM with glucosamine-6-phosphate [2] worked out at 2680 ± 1000 µM. Further, the “self-cleavage kobs at 40 uM GlcN6P” value with glucosamine-6-phosphate [7] worked out at 0.000369 ± 6.8e-05 s⁻¹. Also, in the data set with glucosamine-6-phosphate [5], the “self-cleavage kobs at 160 uM GlcN6P” value worked out at 0.000896 ± 0.00017 s⁻¹. In the data set with glucosamine-6-phosphate [6], the “self-cleavage kobs at 640 uM GlcN6P” value was 0.00313 ± 0.00055 s⁻¹. In addition, the “self-cleavage kobs at 2500 uM GlcN6P” value with glucosamine-6-phosphate [3] turned out to be 0.00817 ± 0.0015 s⁻¹. Besides, the “self-cleavage kobs at 10000 uM GlcN6P” value with glucosamine-6-phosphate [4] stood at 0.0156 ± 0.0037 s⁻¹.
Take A39U U69G: in the data set with glucosamine-6-phosphate [1], the kcat turned out to be 6.87e-05 ± 1e-05 s⁻¹. For the same variant, the “self-cleavage kobs at 640 uM GlcN6P” value with glucosamine-6-phosphate [6] amounted to 4.85e-05 ± 1.5e-05 s⁻¹. The “self-cleavage kobs at 2500 uM GlcN6P” value with glucosamine-6-phosphate [3] was 4.76e-05 ± 1.3e-05 s⁻¹. Moreover, the “self-cleavage kobs at 10000 uM GlcN6P” value in the data set with glucosamine-6-phosphate [4] came out at 7.29e-05 ± 1.5e-05 s⁻¹.
A39U A53G: the kcat in the data set with glucosamine-6-phosphate [1] turned out to be 0.0183 ± 0.0065 s⁻¹. In addition, the KM with glucosamine-6-phosphate [2] worked out at 1410 ± 620 µM. For the same variant, the “self-cleavage kobs at 40 uM GlcN6P” value in the data set with glucosamine-6-phosphate [7] stood at 0.000648 ± 6.7e-05 s⁻¹. In the data set with glucosamine-6-phosphate [5], the “self-cleavage kobs at 160 uM GlcN6P” value came out at 0.00141 ± 0.00023 s⁻¹. The “self-cleavage kobs at 640 uM GlcN6P” value in the data set with glucosamine-6-phosphate [6] was found to be 0.0052 ± 0.00085 s⁻¹. Further, the “self-cleavage kobs at 2500 uM GlcN6P” value in the data set with glucosamine-6-phosphate [3] turned out to be 0.0187 ± 0.0064 s⁻¹. The “self-cleavage kobs at 10000 uM GlcN6P” value with glucosamine-6-phosphate [4] came out at 0.0166 ± 0.0029 s⁻¹.
Consider A53C G66C, for which the kcat in the data set with glucosamine-6-phosphate [1] is 0.000476 ± 8.1e-05 s⁻¹. Further, in the data set with glucosamine-6-phosphate [2], the KM amounted to 2510 ± 780 µM. In addition, the “self-cleavage kobs at 640 uM GlcN6P” value with glucosamine-6-phosphate [6] is 9.27e-05 ± 1.9e-05 s⁻¹. Also, the “self-cleavage kobs at 2500 uM GlcN6P” value with glucosamine-6-phosphate [3] was determined as 0.00034 ± 0.00011 s⁻¹. Further, in the data set with glucosamine-6-phosphate [4], the “self-cleavage kobs at 10000 uM GlcN6P” value was 0.000368 ± 6.5e-05 s⁻¹.
For A15C U65C, the kcat with glucosamine-6-phosphate [1] was 7.01e-05 ± 1.5e-05 s⁻¹. Moreover, the “self-cleavage kobs at 2500 uM GlcN6P” value with glucosamine-6-phosphate [3] stood at 9.83e-05 ± 2.2e-05 s⁻¹. Further, the “self-cleavage kobs at 10000 uM GlcN6P” value with glucosamine-6-phosphate [4] came to 6.14e-05 ± 1e-05 s⁻¹.
As to C50A C70A, the kcat with glucosamine-6-phosphate [1] is 4.02e-05 ± 1.1e-05 s⁻¹. Also, the “self-cleavage kobs at 160 uM GlcN6P” value in the data set with glucosamine-6-phosphate [5] came out at 3.47e-05 ± 1.5e-05 s⁻¹. In the data set with glucosamine-6-phosphate [6], the “self-cleavage kobs at 640 uM GlcN6P” value is 3.8e-05 ± 1.3e-05 s⁻¹. Besides, the “self-cleavage kobs at 2500 uM GlcN6P” value with glucosamine-6-phosphate [3] came out at 5.27e-05 ± 1e-05 s⁻¹.
As to G66U C67A, the kcat in the data set with glucosamine-6-phosphate [1] is 0.00338 ± 0.00094 s⁻¹. The KM in the data set with glucosamine-6-phosphate [2] was found to be 3020 ± 1100 µM. In addition, the “self-cleavage kobs at 40 uM GlcN6P” value with glucosamine-6-phosphate [7] is 5.28e-05 ± 1.5e-05 s⁻¹. Moreover, the “self-cleavage kobs at 160 uM GlcN6P” value with glucosamine-6-phosphate [5] was 0.000188 ± 5.8e-05 s⁻¹. Moreover, the “self-cleavage kobs at 640 uM GlcN6P” value in the data set with glucosamine-6-phosphate [6] came to 0.0005 ± 9.9e-05 s⁻¹. Further, the “self-cleavage kobs at 2500 uM GlcN6P” value with glucosamine-6-phosphate [3] was 0.00197 ± 0.00041 s⁻¹. The “self-cleavage kobs at 10000 uM GlcN6P” value in the data set with glucosamine-6-phosphate [4] came to 0.00241 ± 0.00063 s⁻¹.
